Reference: patent US20240336696A1 (PXRADIA MAB TECHNOLOGIES, published 2024)

Target: T1, CD20 on human B-cell lines (JOK-1, Raji, Ramos) (human, UniProt P11836 1-297)
T1 sequence (looked up): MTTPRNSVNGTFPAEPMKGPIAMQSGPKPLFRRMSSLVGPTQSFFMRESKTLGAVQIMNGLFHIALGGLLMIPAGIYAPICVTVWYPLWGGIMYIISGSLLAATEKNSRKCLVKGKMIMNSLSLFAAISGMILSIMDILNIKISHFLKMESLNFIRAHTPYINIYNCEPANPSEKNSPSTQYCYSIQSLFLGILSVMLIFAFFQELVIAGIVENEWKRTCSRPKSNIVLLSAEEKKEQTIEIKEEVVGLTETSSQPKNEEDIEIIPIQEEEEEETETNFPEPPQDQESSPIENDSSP
Test: cell-based or functional assay

B1: chRituximab-HD (chimeric HD antibody identical to chRituximab except for the addition of the HD peptide rs-T15) (antibody, human IgG1, kappa)
heavy: not shown
light: QIVLSQSPAILSASPGEKVTMTCRASSSVSYIHWFQQKPGSSPKPWIYATSNLASGVPVRFSGSGSGTSYSLTISRVEAEDAATYYCQQWTSNPPTFGGGTKLEIKRTVAAPSVFIFPPSDEQLKSGTASVVCLLNNFYPREAKVQWKVDNALQSGNSQESVTEQDSKDSTYSLSSTLTLSKADYEKHKVYACEVTHQGLSSPVTKSFNRGEC
  percent of apoptotic cells against chRituximab, Raji cells, 5 µg/mL: 2.5 fold
